Experiment: label from the status in PepcDB records

| Sequence | protein production |
| --- | --- |
| MSEAIRRAEAIDFGPDAQDLLWLSQDPVAVFDAEDRLRAANPAYCATFGCDPAEAPSWRQIMRRNHAMRQGALIVTEDFEGWLAAAAASRGRVPFRAYEAALHDGRWIWITETTAPDGRMLVHATDVTRLRSESLALRSERDAAQRASWTDPLTGVPNRRFVMDHLERWLDQQPRHGTFGTHALAVMDLDRFKQVNDLYGHTAGDAVLVSFCRITTDSIRSVDLFGRFGGEEFVLFMPNCPLETAQARLERLQEALAVAVVSPDLPALRCTFSAGLVAMRRDKDVHHAIRRADRLLYRAKADGRACVRAEI | failed |
| MQGHHFGGDMSNSEAIDNTTAKLRLAQSSSLLALALLIGSAPAQAADTDWGWLAIGAPAATAQGWTGKGVVIGVVDTGIDFSHPALSGRAFDYNYGSFVAGSNHPHATHVAGIIGATDINRGMEGVAPDVRFSSMKIFTGAGGSYLGDAAVADAYDGAIGSGVRIFNNSWGSSDSIANFTSREELLAHEPLLVGAFTRAVNADAVLVWSTGNDGRSQPSWQAAAPYYIQELKANWIAVTSVGENGTIASYANACGVAKAWCLAAPGGDFNPGIYSTIPGKDYGYMSGTSMAAPYVTGATAIARQMFPKASGAQLAQIVLQTSRDIGAPGIDDVYGWGLLAVDNIVDTINPRGAALFASAAWGRFTTLSAIGNTVLDRISDLRNGRGDVVTAPLAFAGQNGAFSQSGSNPRNAYAADLAAAPQPSPLGFGSVWARGLAGRATLSGSASSPQTTADISGGLLGFDLVNNQNLLVGIAGGGSNTNLTASGISDKAGAQAWHVLGYAAAMYGPAFVNVAGGWNSFDQSYQRRVIPGTAGTVFASTISAAQSSSTDVAYFFQGRGGWTFQTEVGRIEPYVHGATRNQSFGGFSETNASIFSLSVPSASLSEAEYGAGVRWACAPIKTVDQRVAVAPTIDLAYVRFTNDGPIQVETNLLGTSVVGQTAALGADAIRVAAGLSLTSLAGISGSFGYTGTVRDAATAHTVSGGLSIKF | failed |
| MAIDVCCSEASGSGISPRISFSYDLDSTDDGEVRLDSTLLDSGSEFDFCFGSSCSVQEVSPADELFSEGKILPVQIKKEESLPQTVTFRVPRSASLSSSSSSSSSSSSSSRAPEKKMRLKELLLNPESDFEDKPRGLFLQFKRSISLNYDKSRNSKGLIRSFHFLSRSNSTPNPNLDLLPKETHHPHKTHNLPKHKPPLRRSSSLSSSSVPFYSKKPLGRNSFGNGNGGVRVSPVLNFPPPAFISNVADGFFSIGSLCNGKTNTKTKL | failed |
| MKKLLRNLFGSGREEEKRSASDAMSGREQIVTNSEKSNLSTDPDHVNRQADTLKFDAIRAMNMGELVFATEALRKAMELRPEFETRYYLTEALLRRHLTEEALAQMNLLLEEVPMHTATLLNRAKLRLEQNDPSRALEDCGTGIESTSELEEQALFLYYGASAMKDMKNLKDALCLLKQAIEKNDAFIPARLLRARILIDLERYEEATQDLDWVAASDPEEEQVPMLRARLFMLEGKQQNAIQAYEELLSLDPFNEEGHCGIATLMIKEGRSAEAETFLREAIEEMPVQRNLILMLVEILENKGQTQEAAEWRAKLPEAEVESEAVNFNDLYKGNLY | failed |
| MQLQLICEDPSQQSHLDELAARWQLSHTDESDFALVLTAERLELRKVDEPKLGAIFVDLIGGAVGHRRKFGGGKGQAIAKAAGLNKGATPTVLDGTAGLGRDAFVLASLGCKVQMVERHPVVAALLDDGLARAKQDPEIGTWVSERMSLIHASSHDALDQLAQDREFVKPDVVYLDPMYPHPENKKKSALVKKEMRVFQSLVGADLDADGLLEPALALATKRVVVKRPDYANWLNEQKPSMAIETKKNRFDVYVKASMALEHHHHHH | not failed |
| MPQSSRYSDEHVEQLLSEMVNVLEKHHAPTDLALMVLGNMVTNLINTSIAPAQRQILARSFAEALQASIKKADKAHLEHHHHHH | failed |
| GSFQYVPVQLQGGAPWGFTLKGGLEHCEPLTVSKIEDGGKAALSQKMRTGDELVNINGTPLYGSRQEALILIKGSFRILKLIVRRRN | not failed |
| MSLTSSAELAEVDTLARSLLLYRSRLSEYAHANPGFSGSPADSALGLPAWFRKPVRLQGYIAAGTSYAFIASPPAGLAAAVDAGTESDLVGVRRNGQLVTRRLGAIAIALPAPIPEGAVVAVKEGHHHHHH | not failed |
| MLNLQRMSLFIAVVDSGSFTAAAAASGQTKAVVSFNIRQLEKELGVTLLLRSTRRLTLTDAGVLFYQKGVNLLNAAKNLQDEVRASHSGLGGELRITTTSEFGEQVVIPVLAQFSQRHPDLRIRHMSSSHHADLIAERFDVAIRLGSLADSRYRAALISRFTILPVAAPQWLARNPVSSLESLAQAEWIIHERLPTPLRWTVTNNHGQHSRLEISKAGKISVDSARSLMAFALAGSGVALLPQWLVNTALEDGTLIHLLPDYHFPRQGIYAVYPDARHVSTKVRAFIDFLRSQWDCGEHAPSS | failed |
| MKVTNLFKDKVDAISAHQSEFMNWMSPTLRDYWSDFLGKAQNSFLFSNVRDHNQPAVNEEVAPQPAPIVLQPEAQKLYDELSGKIGEVIHTGDWVHVSQERINQFGAVTEDMQWIHTDPERASVESPFKTTIAHGFLTLALLPKLTDSVDADKPLFPTAKLVVNLGLNQVRFPYPVKAGNNVRAVSTLTKVTPIKKGLEIEREIKVEIEGVRRPGAVVVSVIQLHFLEHHHHHH | not failed |
| MNKNILFLSLMALPVFAFAENNLVLPTITVSAEQQVQSYAADRLNKQAALGSLGEKSVLDTPFSLVSYSDVMIRDQQASTVSEVLRADPSIRETTNAGHLNENLQIRGFTVGFEDYNINGLYGMSPSGRIPTDILDHVTLLEGPNALVAGMAPAGSVGGVVMAQTKRATKDL | failed |
| MPSSTFSGTVSTPKLSVAVDMGNPFLNLTVDAFLKIGAVGVTKSLAEDTYKAIDKGSLSKSTLEHALKKLCKEGVYWGAAGGVYIGTEYGIERIRGSRDWKNAMLAGAATGAVLSAVGKKGKDTIVIDAILGGALATASQFVNNHYFY | failed |
| MYKKLILLFFILITFNLFSDEDVLVFYSQPSSIASKFVTGILQDSYGRIWFGTKEGLAYYDGIKYKNYEYIPFSKDSIQSSQIQCLYNDPRKAENGSDVFWIGTFYGVERFNVDTETFTHFDMTSSVVLCFLRDSHGRLWIGTLDGLYILNEDDGSVVKFSQASEFYIGNNGISHIYEDSEGRIYACTHEGLWEYDEPNKRFRRSRLFEKNSAVTDSIINNIFEEDGIYWVSVWDTGLFRIDPKNGKRDLFSFSNNKITCLSNEFSDNVLLIGTWGGGLISFDKNTYSYTEYTSKQRSYNLSNDFIFSIYVDTYGSLWVGTNGGGVNIYDTKRMWSKLILPHENKIDGRENSVSGLTKDKNGNLWISLLNNGITYYDLSTGKKKYYRYSESKIISNSVFKFYIDKNEDIWVGTDLGLCKYDKKKDAFVGVNLYNDNIIEDGERLIYNIISDDNEFLWIGTYDGGLIKFSPSSGILKRYKNDPKNPNSICSNLVFSLLIDSYKRLWVGTNKGLAEYKPSTDEFAIYRYDVNNRKGISSDRITSLFQDVSGKLWIGTSDGGINIFDTEKKEALNYTANEGLPANFIIGMTHMDNHSICVTAIKGMTIFNKDTEIIYSYTLYNHERRFTTVPIMIGDQCFVGTQEGVLGMDINYLLSFKRQEVPVKIRTIGINGNQTPVFKIDLQKTYKYKYSENNISFEFSSMDLSPLSRPSYIFMLEGFDKNWINANMKNYVQYTNLKPGKYTFKVKDISNPYPEPTSFTFIIEKPFWLSTPMIAVYILIFAGLTFLACRINRLFQYKIANKKLQQEQKDLISANEQLTVLSTVDELTGVGNRRQLDTVGKDLWRRGLDNKQPISLIMIDIDLFKQYNDLYGHQAGDNVLRTVAQTLQKKLRAKYDFVGRYGGEEFLVLLYNSSASETMKIAEKLRIEIKNLNIEHSAEKDKILTISLGAYTSVPNNELSYETMLSFADSALYKAKESGRDICKMYTE | failed |
| PGRPTMMISTTAMNTALLQWHPPKELPGELLGYRLQYCRADEARPNTIDFGKDDQHFTVTGLHKGTTYIFRLAAKNRAGLGEEFEKEIRTPEDL | not failed |
| MEKIERLRSAFDEAGIDGILLTNEHSRRYMANFTGTAGVVLISKKRAQFITDFRYVEQASKQAVGYEIVQHAGLIIDEVAKQVKELGIQKLGFEQDTLTYSSYSAHKEAIDAEFIPTSGLVEKLRLIKTDSEIKILKEAAQIADAAFEHILSFIRPGVSEIEVSNELEFFMRKQGATSSSFDIIVASGLRSALPHGVASEKVIETGDFVTLDFGAYYKGYCSDITRTIAVGEPSDKLKEIYNIVLEAQLRGVNGIKAGLTGREADALTRDYITEKGYGEYFGHSTGHGIGLEIHEAPGLAFRSDTVLEPGMAVTVEPGIYIPGIGGVRIEDDIIVTSEGNEVITKSPKELIIL | not failed |
| MSDHNNKGRQQDVKALPRRVDERLNLSRHKEVKPSRLHDEVHRIVYELEARQLELEMQQENMLQSKEEMECLLKRYVEHYDIAPHSYMTISREGSILEANLTAAKNLGQDRALLKGDLLEKFIADKDRPVFKAFLERVFRGQTNAFCEVKLFNNQASQARGSAEADRYETVIEERMVRFDAALSNDGEECYIYITVSDRGSQNELEGQNTFFTDRLKDDIADMPDSDKVDFNYQLFDSVIHTRIRLAALSYLYTVKQACFVEIRDKIKASDGSLSVHMRMLESAGYISCDKEFLARKPQTVYRITPLGHDAFLKYSDIVFSLIAKKQEAS | failed |
| MSSLAQREERSSDGREPARAWAVTIVVLGLLLVIWPFVRTPPLPIAPAYAHLLGAWLGAVVALAAMARALRPHRRRGPPDA | failed |
| MLAQQIVGIFLMTTGTLFVFVAGLGVLRLPDVYMRLHASTKAGTLGVALNAAGLVVFHPDLGIFTRAFALVLFLLLTAPVAAHMIGRASYFAREEMGVSIWDGTVVDRMLDHRGEALFSTGAPEDGADASGSPS | failed |
| MKNSFLCVGSFLLAASFFTSCTEDKDWSGGLKNSDLVFQTYLPTEGAKGTELSIRGNNFGEDISQVQVWVNEKEAEVISVTSTRIMARVAEASGSGVVKVRVGEVVYSYPDLFSYGYIRNVYTVAGNGQGTTVDGAYLQASVQWPIVMVYDKWDDAILFLQDEGEHRIRRMKDGKIETLCSTKSLVNNARSICFSLDGDTLFIGNDNANNYVANPVAVGMVTRKGGFKDLKSYIPSEKLAQPHINGIAVNPVDGSLFTYHWGRHVFRYNKATETCEYVITRDQFNELVVGLFPDADGNMQNIGGDGGYGGLAFSPDGKTLYWNGRDPYQGILKADYDLVTKKCTNLTRFAGNGVWGIIDGQGVSSRMDQPNQIAVDAEGNLLVTTVYGRTVRKITPEGYVSTYAGIGYQTGYVDGLAAEAKFNKPYGIAIDAQGNVYVGDCENWRIRVIKEE | failed |
| MKVGIDAGGTLIKIVQESQQGRSYETKLTTNISEVIAWLNANTFESISLTGGNAGVIAENLNVDATIFVEFDASSKGLGMLLKEQGHHIDEYIFANVGTGTSLHYFDGKQQRRVGGVGTGGGMIQGLGYLLSQITDYEALTNLAQSGDRDTIDLKVKHIYKDTEPPIPGELTAANFGNVLHNLDVDFSPANKLASVVGVVGEVITTMAITVARENKTENVVYIGSSFNNNPLLREVIEDYTVLRGFKPYYIENGAFSGALGAIYLN | failed |
| MYNLLLTILLVLSGLLEIAIFMQPQKNPSSNVFDSSGSEALFERTKARGFEAFMQRFTAVLVFFWLAIALVLAILSSK | failed |
| MITDEHIELFLAQAHRYGDAKLMLCSSGNLSWRIGEEALISGTGSWVPTLAKEKVSICNIASGTPTNGVKPSMESTFHLGVLRERPDVNVVLHFQSEYATAISCMKNKPTNFNVTAEIPCHVGSEIPVIPYYRPGSPELAKAVVEAMLKHNSVLLTNHGQVVCGKDFDQVYERATFFEMACRIIVQSGGDYSVLTPEEIEDLEIYVLGKKTK | not failed |

Reference: a protein production outcome set (Wang et al. 2014)
